From PMC11995805 (BBA Advances, 2025)

Target: T1, Recombinant FLAG-tagged shroom-2 PDZ domain (1st-110th amino acid) (human, UniProt Q13796 1-110)
T1 sequence (looked up): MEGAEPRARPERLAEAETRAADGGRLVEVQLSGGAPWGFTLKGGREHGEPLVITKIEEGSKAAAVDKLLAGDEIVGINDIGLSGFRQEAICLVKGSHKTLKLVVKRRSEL
Test: co-IP

Kd: 3.36 µM
B1: His-tagged peptide of the carboxy terminus of claudin-11, NH2-…-COOH (peptide)
peptide: {H2N-Met-H2N-H2N-H2N-H2N-H2N-H2N}-PTHAKSAHV-OH
SMILES: CSCC[C@H](N)C(=O)N1CCC[C@H]1C(=O)N[C@H](C(=O)N[C@@H](Cc1c[nH]cn1)C(=O)N[C@@H](C)C(=O)N[C@@H](CCCCN)C(=O)N[C@@H](CO)C(=O)N[C@@H](C)C(=O)N[C@@H](Cc1c[nH]cn1)C(=O)N[C@H](C(=O)O)C(C)C)[C@@H](C)O
